Source: patent publication US20190119348A1, “PARATHYROID HORMONE RECEPTOR 1 ANTAGONIST AND INVERSE AGONIST POLYPEPTIDES AND METHODS OF THEIR USE” (The General Hospital Corporation, priority 2016, published 2019)
Like-named read-outs stand apart in the source and are kept apart here. Where a SMILES comes first, the peptide text is derived from it. Where no end group is shown, it is not given here. [ ]: non-standard residue; d: D form. Nle = CCCC[C@H](N)C(=O)O

T1: PTHR1 (Homo sapiens, UniProt Q03431)
T1 construct: expressed in transfected cells; host or cells: GP-2.3 (HEK-293 stably transfected with hPTHR1 and GloSensor)
T1 sequence (Q03431 27-593): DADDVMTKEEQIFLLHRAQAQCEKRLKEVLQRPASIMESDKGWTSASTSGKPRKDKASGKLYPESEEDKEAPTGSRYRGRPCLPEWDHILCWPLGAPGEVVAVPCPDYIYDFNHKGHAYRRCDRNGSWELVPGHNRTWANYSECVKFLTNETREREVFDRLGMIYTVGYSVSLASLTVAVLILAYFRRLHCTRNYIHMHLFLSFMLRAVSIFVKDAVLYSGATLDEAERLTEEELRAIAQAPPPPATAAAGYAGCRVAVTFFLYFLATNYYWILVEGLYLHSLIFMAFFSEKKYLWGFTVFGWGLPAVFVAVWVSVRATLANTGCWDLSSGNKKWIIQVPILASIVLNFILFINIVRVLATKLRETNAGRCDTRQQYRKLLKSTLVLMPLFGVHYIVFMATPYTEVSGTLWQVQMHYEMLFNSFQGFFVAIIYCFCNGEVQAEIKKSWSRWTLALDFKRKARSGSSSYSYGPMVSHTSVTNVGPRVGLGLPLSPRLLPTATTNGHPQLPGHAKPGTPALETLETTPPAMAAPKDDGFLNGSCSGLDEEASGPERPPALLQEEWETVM

T2: endogenous hPTHR1 (Homo sapiens, UniProt Q03431)
T2 construct: Saos-2, in which is endogenously expressed the hPTHR1; endogenous in cells
T2 sequence (Q03431 27-593): T1 sequence (Q03431 27-593)

T3: human parathyroid hormone receptor 1 (hPTHR1) (human), Q03431
T3 chain: T1 sequence (Q03431 27-593)


What was measured:
PTHR1 = target: T1, PTHR1; assay: Antagonism of PTH(1-34)-induced cAMP response (GloSensor) in GP-2.3 cells; assay type: cell-based
Protocol: cAMP signaling was assessed in the HEK293-derived or SaOS2-derived cell lines stably expressing the luciferase-based GloSensor™ cAMP reporter (Hattersley et al., Paper presented at: Novel Signaling Mechanisms and Bone Cell Biology 2014; Binkowski et al., Methods in molecular biology. 756:263-271). HEK-293 cells were further transfected to stably express the hPTHR1, hPTHR1-H223R, or hPTHR1-T410P. The cells were seeded into 96-well white plates and were assayed 24 to 48 hours post-confluency. Assays were performed at room temperature in CO2-independent culture media (Life Technologies, Corp., Carlsbad, Calif.) containing 0.1% BSA (CIDB). The cells were pre-loaded with luciferin (0.5 mM in CIDB) for 15 minutes, then PTH peptides were added at varying concentrations. cAMP-dependent luminescence was measured at two-minute intervals using a PerkinElmer Envision plate reader. The time at which maximum luminescence (cps) observed with agonist alone, typically at 10-20 minutes after agonist addition, was used to obtain data from wells containing antagonist with or without agonist, to thus generate antagonist ligand dose-response curves. The resulting cps values were then plotted against ligand concentration using GraphPad Prism 7.0 software and a four-parameter logistics curve fitting equation, which yielded parameters of inhibitory potency (pIC50).
Pharmacological properties of the ligands were assessed in cells expressing the PTHR1 and the GloSensor™ cAMP reporter. The assays used GP-2.3 cells, derived from HEK293 cells by stable transfection with the hPTHR1 and GloSensor™, as well as SGS-72 cells, which are derived from the human osteosarcoma cell line, Saos-2, in which is endogenously expressed the hPTHR1, by stable transfection with GloSensor™. Binding of representative polypeptides to the PTHR1 was assessed in GP-2.3 cells by radioligand competition methods (FIGS. 1A and 1B, Table 3).
[…] concentration of antagonist that inhibited the maximum response to PTH(1-34)-induced in the absence of antagonist (at ˜40 minutes) is reported in units of -log M (pIC50), and the corresponding nanomolar value is shown below each pIC50 value. Data are means of the number of experiments indicated (n). The PTH(1-34)-induced maximum luminescence was ˜80,000 cps and the basal was ˜1,000 cps. TMR indicates Lys13 modified at epsilon amino function with TMR, P vs. inhibition by dW12,Y34-bPTH(7-34).

endogenous hPTHR1 = target: T2, endogenous hPTHR1; assay: Antagonism of PTH(1-34)- and PTHrP(1-36)-induced cAMP response (GloSensor) in SGS-72 cells; assay type: cell-based; conditions: PTH(1-34) 0.3 nM
Protocol: cAMP signaling was assessed in the HEK293-derived or SaOS2-derived cell lines stably expressing the luciferase-based GloSensorTM cAMP reporter ([…] al., Paper presented at: Novel Signaling Mechanisms and Bone Cell Biology 2014; Binkowski et al., Methods in molecular biology. 756:263-271). HEK-293 cells were further transfected to stably express the hPTHR1, hPTHR1-H223R, or hPTHR1-T410P. The cells were seeded into 96-well white plates and were assayed 24 to 48 hours post-confluency. Assays were performed at room temperature in CO2-independent culture media (Life Technologies, Corp., Carlsbad, Calif.) containing 0.1% BSA (CIDB). The cells were pre-loaded with luciferin (0.5 mM in CIDB) for 15 minutes, then PTH peptides were added at varying concentrations. cAMP-dependent luminescence was measured at two-minute intervals using a PerkinElmer Envision plate reader. The time at which maximum luminescence (cps) observed with agonist alone, typically at 10-20 minutes after agonist addition, was used to obtain data from wells containing antagonist with or without agonist, to thus generate antagonist ligand dose-response curves. The resulting cps values were then plotted against ligand concentration using GraphPad Prism 7.0 software and a four-parameter logistics curve fitting equation, which yielded parameters of inhibitory potency (pIC50). Pharmacological properties of the ligands were assessed in cells expressing the PTHR1 and the GloSensorTM cAMP reporter. The assays used GP-2.3 cells, derived from HEK293 cells by stable transfection with the hPTHR1 and GloSensorTM, as well as SGS-72 cells, which are derived from the human osteosarcoma cell line, Saos-2, in which is endogenously expressed the hPTHR1, by stable transfection with GloSensorTM. Binding of representative polypeptides to the PTHR1 was assessed in GP-2.3 cells by radioligand competition methods (FIGS. 1A and 1B, Table 3). […] In Table 5, antagonist assays were performed in SGS-72 cells (SaOS2 cells with stable GloSensorTM cAMP reporter) at room temperature. […] The mean (±sem) concentration of antagonist that inhibited the maximum agonist-induced response observed in the absence of antagonist (at 40 minutes) is reported in units of -log M (pIC50), and the corresponding nanomolar value is shown below each pIC50 value. Data are means of the number of seven experiments. The PTH(1-34)-induced maximum luminescence was 500,000 cps and the basal was 5,000 cps. TMR indicates Lys13 modified at epsilon amino function with TMR. The data are illustrated in FIG. 7A. […] Date are means (±SEM) of the number of separate experiments indicated by n.

[1] = target: T3, human parathyroid hormone receptor 1 …; assay: cell-based or functional assay
[2] = target: T3, human parathyroid hormone receptor 1 …; assay: radioligand competition on GP-2.3 cells (hPTHR1), tracer 125I-PTH(1-34), n=4
[3] = target: T3, human parathyroid hormone receptor 1 …; assay: radioligand competition on GP-2.3 cells (hPTHR1), tracer 125I-PTHrP(5-36), n=4
hPTHR1-H223R (human) [4] = target: hPTHR1-H223R (human) (UniProt Q03431); assay: cell-based or functional assay
hPTHR1-H223R (human) [5] = target: hPTHR1-H223R (human) (UniProt Q03431); assay: cell-based or functional assay; remark: listed apart in the source

Molecule | IC50 (nanomolar value of the pIC50), antagonism of PTH(1-34)-induced cAMP response, GP-2.3 cells [1] [nM] | IC50 (nanomolar value of the pIC50), antagonism of PTH(1-34)-induced cAMP response, SGS-72 cells [1] [nM] | IC50 (nanomolar value of the pIC50), antagonism of PTHrP(1-36)-induced cAMP response, SGS-72 cells [1] [nM] | IC50, antagonism of PTH(1-34) (0.3 nM)-induced cAMP response, SGS-72 cells [1] [nM] | pIC50, antagonism of PTH(1-34) (0.3 nM)-induced cAMP response, SGS-72 cells [1] | pIC50, antagonism of PTH(1-34)-induced cAMP response (GloSensor), GP-2.3 cells [1] | pIC50, antagonism of PTH(1-34)-induced cAMP response, SGS-72 cells [1] | pIC50, antagonism of PTHrP(1-36)-induced cAMP response, SGS-72 cells [1] | IC50 [2] [nM] | pIC50 [2] | IC50 [3] [nM] | pIC50 [3] | other results
CC[C@H](C)[C@H](NC(=O)[C@H](CCC(=O)O)NC(=O)[C@H](CO)NC(=O)[C@@H](NC(=O)[C@@H](N)CO)C(C)C)C(=O)N[C@@H](CCC(N)=O)C(=O)N[C@@H](CC(C)C)C(=O)N[C@@H](CCSC)C(=O)N[C@@H](Cc1c[nH]cn1)C(=O)N[C@@H](CC(N)=O)C(=O)N[C@@H](CC(C)C)C(=O)NCC(=O)N[C@@H](CCCCN)C(=O)N[C@@H](Cc1c[nH]cn1)C(=O)N[C@@H](CC(C)C)C(=O)N[C@@H](CC(N)=O)C(=O)N[C@@H](CO)C(=O)N[C@@H](CCSC)C(=O)N[C@@H](CCC(=O)O)C(=O)N[C@@H](CCCNC(=N)N)C(=O)N[C@H](C(=O)N[C@@H](CCC(=O)O)C(=O)N[C@@H](Cc1c[nH]c2ccccc12)C(=O)N[C@@H](CC(C)C)C(=O)N[C@@H](CCCNC(=N)N)C(=O)N[C@@H](CCCCN)C(=O)N[C@@H](CCCCN)C(=O)N[C@@H](CC(C)C)C(=O)N[C@@H](CCC(N)=O)C(=O)N[C@@H](CC(=O)O)C(=O)N[C@H](C(=O)N[C@@H](Cc1c[nH]cn1)C(=O)N[C@@H](CC(N)=O)C(=O)N[C@@H](Cc1ccccc1)C(N)=O)C(C)C)C(C)C [compound 1923, PTH(1-34), reference compound] |  |  |  |  |  |  |  |  |  |  |  |  | PTH(1-34)-induced maximum luminescence (PTHR1; basal ~1,000 cps): ~80,000 cps; PTH(1-34)-induced maximum luminescence (endogenous hPTHR1; basal ~5,000 cps): ~500,000 cps
CCCC[C@H](NC(=O)[C@H](CC(C)C)NC(=O)[C@H](CCC(N)=O)NC(=O)[C@@H](N)[C@@H](C)CC)C(=O)N[C@@H](Cc1c[nH]cn1)C(=O)N[C@@H](CCC(N)=O)C(=O)N[C@@H](CCCNC(=N)N)C(=O)N[C@H](Cc1c[nH]c2ccccc12)C(=O)N[C@@H](CCCCN)C(=O)N[C@@H](Cc1c[nH]c2ccccc12)C(=O)N[C@H](C(=O)N[C@@H](CCC(N)=O)C(=O)N[C@@H](CC(=O)O)C(=O)N[C@@H](C)C(=O)N[C@@H](CCCNC(=N)N)C(=O)N[C@@H](CCCNC(=N)N)C(=O)N[C@@H](CCCNC(=N)N)C(=O)N[C@@H](C)C(=O)N[C@@H](Cc1c[nH]c2ccccc12)C(=O)N[C@@H](CC(C)C)C(=O)N[C@@H](Cc1c[nH]cn1)C(=O)N[C@@H](CCCCN)C(=O)N[C@@H](CC(C)C)C(=O)N[C@H](C(=O)N[C@@H](C)C(=O)N[C@@H](CCC(=O)O)C(=O)N[C@H](C(=O)N[C@@H](Cc1c[nH]cn1)C(=O)N[C@H](C(=O)N[C@@H](C)C(=O)N[C@@H](CCC(=O)O)C(=O)N[C@H](C(=O)N[C@@H](CS)C(N)=O)[C@@H](C)CC)[C@@H](C)O)[C@@H](C)CC)[C@@H](C)CC)[C@@H](C)CC [compound 1974, Nle8, dW12, W23, C37-LA-PTH(5-37)] (H-IQL[Nle]HQR[dW]KWIQDARRRAWLHKLIAEIHTAEIC-NH2; N-terminus assumed) |  |  |  |  |  |  |  |  |  |  |  |  | IC50 (PTHR1; inhibition of PTH(1-34)-induced maximum response, read-out: corresponding nanomolar value of pIC50 (Table 4) (converted)): 224 nM; IC50 (endogenous hPTHR1; IC50 PTH(1-34) (Table 6, nanomolar value), antagonist pre-treatment 15 minutes): 4.39 nM
FMHNLWKHLSSMERVEWLRKKLQDVHNY (modifications not checked) [dW12, Y34-bPTH(7-34)-1894] | 377 | 5 | 5 | 14.5 | 7.84 -log M | 6.42 -log M | 8.31 -log M | 8.33 -log M | 28.6 | 7.54 -log M | 35.1 | 7.46 -log M | pIC50, inhibition of the cAMP signal induced by PTH(1-34) (0.3 nM), SGS-72 cells [1]: 7.2 -log M; pIC50, inhibition of the cAMP signal induced by PTH(1-34) (1 nM), GP-2.3 cells [1]: 6.4 -log M
IQLMHQRAKWIQDARRRAFLHKLIAEIHTAEI-NH2 [LA-PTH(5-36)-2012] |  |  |  |  |  |  |  |  |  |  |  |  | Reduction of basal cAMP, % vehicle; After ligand washout; GHR-10 cells (hPTHR1-H223R (human) [4]): -49 % vehicle; Reduction of basal cAMP, % vehicle; Ligand @ -6M; GHR-10 cells (hPTHR1-H223R (human) [4]): -15 % vehicle
IQLMHQRWKWIQDARRRAWLHKLIAEIHTAEI (modifications not checked) [dW12, W23-LA-PTH(5-36)-1949] | 101 | 1 | 1 | 1.45 | 8.84 -log M | 7 -log M | 9.11 -log M | 9.1 -log M | 22.3 | 7.65 -log M | 17.7 | 7.75 -log M | Reduction of basal cAMP, % vehicle; After ligand washout; GHR-10 cells (hPTHR1-H223R (human) [5]): 30 % vehicle; Reduction of basal cAMP, % vehicle; Ligand @ -6M; GHR-10 cells (hPTHR1-H223R (human) [5]): 41 % vehicle; IC50, antagonism of PTHrP(1-36) (0.3 nM)-induced cAMP response, SGS-72 cells [1]: 1.21 nM; pIC50, antagonism of PTHrP(1-36) (0.3 nM)-induced cAMP response, SGS-72 cells [1]: 8.92 -log M; washout assay: inhibition of the cAMP response to agonist applied after antagonist pre-treatment and rinsing [1]: > 90%
